{
  "source": "paper PMC3210020",
  "molecules": {"B1": {"name": "synthetic γ-module peptide … (peptide)", "peptide": "HHLGGAKQAGDV"}},
  "key": {"[1]": {"target": "integrin αIIbβ3 (human) (UniProt P05106)", "test": "SPR"}, "[2]": {"target": "integrin αIIbβ3 (human) (UniProt P05106)", "test": "SPR", "remark": "listed apart in the source"}, "[3]": {"target": "integrin αIIbβ3 (human) (UniProt P05106)", "test": "ELISA"}, "[4]": {"target": "integrin αIIbβ3 (Homo sapiens) (UniProt P08514)", "test": "SPR", "details": "cited from earlier work"}, "[5]": {"target": "integrin αIIbβ3 (Homo sapiens) (UniProt P08514)", "test": "solid-phase binding", "details": "cited from earlier work"}, "[6]": {"target": "integrin αIIbβ3 (Homo sapiens) (UniProt P08514)", "details": "cited from earlier work"}, "[7]": {"target": "integrin αIIbβ3 (Homo sapiens) (UniProt P08514)", "details": "cited from earlier work", "remark": "listed apart in the source"}, "[8]": {"target": "integrin αIIbβ3 (human) (UniProt P05106)", "test": "SPR", "remark": "listed apart in the source"}},
  "note": "Like-named read-outs stand apart in the source and are kept apart here.",
  "data": [
    {"molecule": "eptifibatide (peptide)", "values": [
      {"measurement": "Ki", "setting": "[1]", "value": 0.4, "unit": "nM"}
    ]},
    {"molecule": "human fibrinogen (plasma), (AαBβγ)2 (from UniProt P02671-2 36-644; P02675 45-491; P02679-2 27-437) (natural protein)", "values": [
      {"measurement": "Kd", "setting": "[2]", "value": 4.42, "unit": "nM"},
      {"measurement": "koff", "setting": "[2]", "value": "8.41e-05", "unit": "s⁻¹"},
      {"measurement": "kon", "setting": "[2]", "value": 19000, "unit": "M⁻¹ s⁻¹"},
      {"measurement": "Kd", "setting": "[1]", "value": 3.2, "unit": "nM"},
      {"measurement": "dH", "setting": "[1]", "value": -11.7, "unit": "kcal/mol"},
      {"measurement": "fold slower off rate at 15 °C than at 37 °C", "setting": "[1]", "value": 7, "unit": "fold"},
      {"measurement": "fold slower on rate at 15 °C than at 37 °C", "setting": "[1]", "value": 2, "unit": "fold"},
      {"measurement": "fold tighter binding at 15 °C than at 37 °C", "setting": "[1]", "value": 4, "unit": "fold"},
      {"measurement": "koff", "setting": "[1]", "value": "7.01e-05", "unit": "s⁻¹"},
      {"measurement": "kon", "setting": "[1]", "value": 21900, "unit": "M⁻¹ s⁻¹"}
    ]},
    {"molecule": "biotinylated fibrinogen (from UniProt P02671-2 36-644; P02675 45-491; P02679-2 27-437) (natural protein)", "values": [
      {"measurement": "midpoint of the saturable binding profile", "setting": "[3]", "value": 2, "unit": "nM"}
    ]},
    {"molecule": "normal recombinant fibrinogen (from UniProt P02671-2 36-644; P02675 45-491; P02679-2 27-437) (natural protein)", "values": [
      {"measurement": "kon", "setting": "[1]", "value": 21900, "unit": "M⁻¹ s⁻¹"}
    ]},
    {"molecule": "fibrinogen (from UniProt P02671)", "values": [
      {"measurement": "Kd", "setting": "[4]", "value": 3, "unit": "nM"},
      {"measurement": "Kd", "setting": "[5]", "value": 60, "unit": "nM"},
      {"measurement": "Kd", "setting": "[6]", "value": 50, "unit": "nM"},
      {"measurement": "Kd", "setting": "[7]", "value": 165, "unit": "nM"}
    ]},
    {"molecule": "B1", "values": [
      {"measurement": "percent reduction of the fibrinogen (100 nM) binding signal at 3 µM peptide", "setting": "[8]", "value": "< 10", "unit": "%"}
    ]}
  ]
}
